T1: CDK4 (Mus musculus, UniProt P30285)
T1 sequence (P30285 1-303): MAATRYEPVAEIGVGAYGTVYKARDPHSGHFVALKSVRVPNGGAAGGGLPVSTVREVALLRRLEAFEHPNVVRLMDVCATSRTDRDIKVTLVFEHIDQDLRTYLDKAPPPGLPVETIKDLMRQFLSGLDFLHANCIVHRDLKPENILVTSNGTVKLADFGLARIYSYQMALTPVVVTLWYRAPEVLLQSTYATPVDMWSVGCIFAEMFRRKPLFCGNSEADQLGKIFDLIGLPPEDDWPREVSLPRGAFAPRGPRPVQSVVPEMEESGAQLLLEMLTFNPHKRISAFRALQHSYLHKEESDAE


Columns and labels:
CDK4 and cyclin D1 = target: T2, CDK4 and cyclin D1 (Mus musculus, UniProt P30285); test: In vitro CDK4 kinase assay on GST-RB, Western blot with phosphoserine 780/795 antibodies; type: biochemical; conditions: proteins added in two-fold increments from 75 ng to 300 ng; phosphoserine 780 antibody (identical with 795)
T2 construct: made in house; host or cells: Sf9 insect cells coinfected with baculovirus stocks (from C. J. Sherr)
Protocol: Active CDK4 was produced in Sf9 cells coinfected with baculovirus stocks encoding CDK4 and cyclin D1 (from C. J. Sherr).
The kinase assay was performed essentially as described by Kato, et al., Genes Dev, (1993), 7(3):331–42. The CDK4-specific kinase inhibitor p16 (from D. Beach, [as described in Serrano, et al., Nature, (1993), 366(6456): 704–7]) was used as a GST-p16 fusion added to the kinase reaction. The GST-RB fusion (767–928) was used as a kinase target as previously described Kato, et al., Genes Dev, (1993), 7(3):331–42.
To test for kinase inhibition, the various proteins and protein domains were added to the reaction in two-fold increments from 75 ng to 300 ng. […] For the GST constructs, total protein concentration was kept constant in the kinase reaction by adding GST protein. After the assay the total reaction was run on SDS PAGE gels and analyzed by Western blot analysis. Specific phosphorylation of RB was measured with rabbit polyclonal antibodies to RB phosphoserines 780 or 795 (New England Biolabs).

C2C12 myoblasts = test: RB phosphorylation and growth inhibition in cotransfected C2C12 myoblasts; type: cell-based, mouse
Excerpt: C2C12 myoblasts were cotransfected with a GST-pCEFL RB expression plasmid (RB aa 767–928) and pCDNA3 expression plasmids for full-sized or the C-terminus of MyoD(CMD1). GST-RB was recovered from the cells using methods known to those of skill in the art. The samples were adjusted for equal levels GST protein and loaded on SDS-PAGE gels for western analysis by phosphoserine 780 and 795-specific antibodies.

CDK4 [1] = target: T1, CDK4; test: GST fusion pull-down binding assay with CDK4 from Sf9 cell extracts, anti-CDK4 immunoblot; set-up: made in house; host or cells: Sf9 insect cells, baculovirus; conditions: GST fusion protein on glutathione agarose; CDK4 from baculovirus infected Sf9 cell extracts
Protocol: The Sf9 cell extract was incubated with agarasoe bound with either glutathione transferase (GST) alone, or GST fusion proteins encoding one of the four different vertebrate myogenic factors from chicken: CMD1 (MyoD), Ch-myogenin, Ch-myf5 an Ch-mrf4 using methods known to those of skill in the art. Any GST complexes formed were recovered on glutathione-Sepharose beads. The recovered GST complexes were then washed, heated in sample buffer and loaded on an SDS-PAGE gel.
The gel was then analyzed by immunoblot with anti-CDK4 affinity purified rabbit polyclonal antibody on HyBond ECL (Amersham). The anti-CKD4 antibody was diluted 1:2,000–5,000. The second antibody was HRP anti-rabbit and was diluted 1:10,000 (Pierce cat. no. 31460). The signal was detected using SuperSignal Ultra Reagent (Pierce cat. no. 34075).
Proteins were expressed in E. coli strain BL21 (DE3) and purified as described by Shirakata et al., Genes Dev. 1993 7(12A):2456–70. The MyoD-GST fusion proteins were bound to glutathione agaraose.
The binding experiments were performed with CDK4 produced in the baculovirus system (Kato et al., Genes Dev. 1993 7(3):331–42) essentially as described by Kaelin et al., Cell 1991 64(3):521–32.
Deletion mapping of the MyoD (CMD1) carboxy terminus narrowed the CDK4-binding region to a maximum of fifteen amino acids between residues 189–203, well outside the bHLH domain (FIG. 10b, lanes 4 and 5). To confirm that these fifteen amino acids bound CDK4, the fifteen amino acid peptide was joined to glutathione transferase and tested for its ability to bind the CDK4 from Sf9 cell extracts.

10T1/2 cells = test: BrdU incorporation growth arrest assay in transfected 10T1/2 cells; type: cell-based, mouse; conditions: for growth inhibitory activity (BrdU positive cells): 10T1/2 cells, 20% fetal calf serum, one hour BrdU pulse, domains with NLS in pCDNA3 or GST-pCEFL
Protocol: 10T1/2 cells in growth medium were cotransfected with plasmids expressing full-sized MyoD(CMD1) or the indicated domains, either as GST fusions in GST-pCEFL or as subclones in pCDNA3, along with a lacZ expression construct, pCH110, to mark transfected cells. The various domains were targeted to the nucleus with a nuclear tag in the absence of an existing NLS.
Cultures were maintained in 20% fetal calf serum. 72 hours after transfection cultures were refed with the same medium and 12 hours later they were given a one hour pulse with BrdU (10 μM) prior to fixation, as previously described by Crescenzi et al., PNAS USA 1990 87(21):8442–6; and Sorrentino et al., Nature, 1990 345(6278):813–5. Cells were then reacted with rabbit anti-BrdU antibody (Jackson labs) and Xgal.

CDK4 [2] = target: T1, CDK4; test: Mammalian two-hybrid luciferase reporter assay with vp16-CDK4 in 10T1/2 fibroblasts; type: cell-based; conditions: average of three experiments
Excerpt: The interaction between MyoD and CDK4 in vivo was examined using a mammalian version of the yeast two hybrid system described by Finkel et al., (1993) J Biol Chem 268, 5–8.
MyoD and myogenin (MGN) were each cloned into the gal4 DNA-binding domain vector, pM. CDK4 was inserted into the vp16 activation domain plasmid, pVP16 using methods known to those of skill in the art.
10T1/2 fibroblasts (3×10^5 cells per 60 mm dish or multiwell plate) grown in DMEM with either 10% fetal calf serum were co-transfected with either gal4-MyoD or gal4-MGN along with vp16-CDK4 and a luciferase reporter using Fugene-6 (Boehringer-Mannheim) according to the manufacturer's directions. 1 μg gal4 luciferase reporter, 2 μg each of the gal4 (pM vector, Clonetech) and vp16 (pvp16 vector, Clonetech) constructs, and 300 ng of the beta galactosidase reporter pCH110 (Pharmacia), a total of 5.3 μg DNA, were used in each transfection. The pSV2-beta galactosidase reporter was used to normalize transfection efficiencies.
After 24–36 hours, if required, cells were placed in 2% horse serum plus insulin (10 μg/ml) to induce differentiation and destabilize cyclin D1. […]
24–48 hours after transfection, the luciferase reporter assay was performed according to the manufacturer's directions (Promega, cat. no. E4030) and measured in a Victor 1420 Multilabel Counter. […]

[3] = system: CDK4 target sites, serines 780 and 795 of RB; test: Phosphorylation of cotransfected GST-RB target in 10T1/2 cells, Western blot; type: cell-based, mouse; conditions: 48 hours after transfection, nuclear extracts
Protocol: The inhibitory activity of the fifteen amino acid CDK4 binding peptide on RB phosphorylation in cells was examined by fusing the fifteen amino acid CDK4-binding peptide of MyoD with a nuclear localization tag to the carboxy terminus of GFP and used in the same transfection protocol with GST-RB.
10T1/2 cells were cotransfected with a GST-RB target (amino acids 767–928) containing a nuclear localization tag, and either MyoD(CMD1) or the carboxy terminus of MyoD with an NLS.
48 hours after transfection, nuclear extracts of the 10T1/2 cells were prepared. The nuclear extracts were passed over glutathione agaraose to capture the GST-RB target.
Western blot analysis of the captured GST-RB target was performed with phosphoserine specific antibodies to the CDK4 target sites, serines 780 and 795. Gel loadings for the phosphoserine antibody analysis were adjusted to the same amount of GST-RB target protein by preliminary western analysis of the extracts (FIG. 13).

T2 sequence (P25322 whole entry partner, one chain of several): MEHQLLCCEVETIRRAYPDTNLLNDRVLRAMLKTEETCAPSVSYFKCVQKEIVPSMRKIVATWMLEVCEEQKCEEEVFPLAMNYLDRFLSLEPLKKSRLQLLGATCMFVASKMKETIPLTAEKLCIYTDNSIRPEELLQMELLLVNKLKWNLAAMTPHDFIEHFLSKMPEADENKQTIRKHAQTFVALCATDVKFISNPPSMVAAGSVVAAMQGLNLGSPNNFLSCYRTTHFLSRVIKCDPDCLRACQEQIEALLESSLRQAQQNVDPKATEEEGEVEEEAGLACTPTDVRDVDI

Row | Molecule | inhibition of CDK4-dependent phosphorylation of RB (GST-RB) in vitro (CDK4 and cyclin D1) | CDK4 kinase activity and cell growth when expressed in cell nuclei (C2C12 myoblasts) | binding to CDK4 (CDK4 [1]) | growth inhibitory activity (BrdU positive cells) (10T1/2 cells) | growth inhibitory effect when the peptide further includes nuclear localization signal (NLS) (10T1/2 cells; data not shown) | vp16 CDK4-dependent luciferase reporter activity (CDK4 [2]) | phosphorylation of serines 780 and 795 on cotransfected RB target protein [3]
1 | fifteen amino acid CDK4-binding peptide: amino acids 189–203 of chicken MyoD (CMD1), SEQ ID NO: 1; tested as GST fusion, with NLS in cells | inhibit | inhibits CDK4 kinase activity and cell growth | bound CDK4 as efficiently as full-sized MyoD (CMD1) | as potent as full-sized MyoD(CMD1) in growth inhibitory activity | enhanced | – | –
2 | full-length MyoD(CMD1): full-sized chicken MyoD (CMD1), muscle specific bHLH transcription factor; used as GST, his-tag or gal4 constructs (protein, UniProt P16075 1-298, looked up, full-length GST, His or gal4 tagged, full-sized chicken MyoD (CMD1), muscle specific bHLH transcription factor; used as GST, his-tag or gal4 constructs) MDLLGPMEMTEGSLCSFTAADDFYDDPCFNTSDMHFFEDLDPRLVHVGGLLKPEEHPHTRAPPREPTEEEHVRAPSGHHQAGRCLLWACKACKRKTTNADRRKAATMRERRRLSKVNEAFETLKRCTSTNPNQRLPKVEILRNAIRYIESLQALLREQEDAYYPVLEHYSGESDASSPRSNCSDGMMEYSGPPCSSRRRNSYDSSYYTESPNDPKHGKSSVVSSLDCLSSIVERISTDNSTCPILPPAEAVAEGSPCSPQEGGNLSDSGAQIPSPTNCTPLPQESSSSSSSNPIYQVL | inhibit | – | binds specifically | showed growth inhibitory activity | – | four-fold increase | reduced the phosphorylation of serines 780 and 795
3 | C-terminus of MyoD(CMD1): amino acids 153–298 of CMD1 (protein, UniProt P16075 153-298, looked up, fragment) ALLREQEDAYYPVLEHYSGESDASSPRSNCSDGMMEYSGPPCSSRRRNSYDSSYYTESPNDPKHGKSSVVSSLDCLSSIVERISTDNSTCPILPPAEAVAEGSPCSPQEGGNLSDSGAQIPSPTNCTPLPQESSSSSSSNPIYQVL | inhibit | – | CDK4 bound | – | – | – | reduced the phosphorylation of serines 780 and 795
4 | Myogenin: chicken myogenic factor that does not bind CDK4, used as the control (protein, UniProt P17920 1-227, looked up, gal4 fusion) Myogenin: MELFETNPYFFPEQRFYDGENFLGSRLQGYEAAAFPERPEVTLCPESRGALEEKDSTLPEHCPGQCLPWACKICKRKTVSIDRRRAATLREKRRLKKVNEAFEALKRSTLLNPNQRLPKVEILRSAIQYIERLQSLLSSLNQQEREQRELRYRPAAPQPAAPSECGSGSSSCSPEWSTQLEFGTNPADHLLSDDQAEDRNLHSLSSIVESIAVEDVAVTFPEERVQN | no inhibitory effect | – | does not bind to CDK4 | – | – | – | –
5 | N-terminus (amino acids 1–92): amino acids 1–92 of CMD1 (protein, UniProt P16075 1-92, looked up, fragment) MDLLGPMEMTEGSLCSFTAADDFYDDPCFNTSDMHFFEDLDPRLVHVGGLLKPEEHPHTRAPPREPTEEEHVRAPSGHHQAGRCLLWACKAC | neither the N-terminus (amino acids 1–92) nor the bHLH domain of MyoD(CMD1) inhibited CDK4 activity | – | – | ineffective in growth inhibition | – | – | –
6 | bHLH domain of MyoD(CMD1): amino acids 93–153 of CMD1 (protein, UniProt P16075 93-153, looked up, fragment) KRKTTNADRRKAATMRERRRLSKVNEAFETLKRCTSTNPNQRLPKVEILRNAIRYIESLQA | neither the N-terminus (amino acids 1–92) nor the bHLH domain of MyoD(CMD1) inhibited CDK4 activity | – | – | effective at inhibiting cell growth | – | – | –

From patent publication US7256256B1, “CDK4 binding peptide” (United States of America as represented by the Secretary, …, priority 1999, dated 2007)
